{
  "source": "paper PMC3124082",
  "biological_target": "Putative NADPH-quinone reductase",
  "assay": "SAXS",
  "data": [
    {"substance": "Putative NADPH-quinone reductase (natural protein)", "values": [
      {"measurement": "fraction of dimer in the oligomer mixture", "value": 47, "unit": "%"},
      {"measurement": "fraction of tetramer in the oligomer mixture", "value": 53, "unit": "%"}
    ]}
  ]
}
